Assay: yeast display, Sf9 membrane polyspecificity reagent, FACS + sequencing; frameworks hold sequencing errors
Summary of the method: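 After 36–48 hours of galactose induction, yeast (Saccharomyces cerevisiae BJ5465) displaying a synthetic nanobody library were stained at 4 °C for 1 hour with 10% biotinylated, detergent-solubilized Sf9 membrane reagent. Streptavidin microbeads enriched the stained cells before FACS sorting into low and high (top ~1%) gates on anti-HA and streptavidin fluorescence. Each clone's polyreactivity label reflects its gate of origin.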

Row | Sequence | polyreactivity (PSR sort gate)
1 | QVQLVESGGGLVQAGGSLRLSCASSGNTFERYAMGWYRQAPGKERELVAAITSSGGSTYYADSVKGRFTISRDNAKNTVYLQMNSLKPEDTAVYYCAASWRPRFYWGQGTQVTVSS | high polyreactivity
2 | QVQLVESAGGLVQARGSLRLSCAASGITFAQYAKGWYRQATGKERELVAGITRSGGSTHYADSVKGRFTISRDNAKYTVYLQMKSLKPEDSAVYYCNARYPYRGKRKPPDYWGQGTQVTVSS | high polyreactivity
3 | QVQLVESGGGLVQAGGSLRLSCAASGNTFRSYVMGWYRQAPGKERELVADISSGDGTNYADSVKGRFTISRDNAKNTVYLQMNSLKPEDTAVYYCAAEWSEESDYWGQGTQVTVSS | low polyreactivity
4 | QVQLVESGGGLVQAGGSLRLSCAASGSTFDVYAMGGYRQAPGKERELVAVISSSDGGITYYADSVKGRFTISRDNAKNTVYLQMNSLKPEDTAVYYCNAESFIWLPQYSDYDYWGQGTQVTVSS | high polyreactivity
5 | QDQLVESGGGLVQAGGSLRLTCAASGRICTYYAMGWYRKATGKERELVASISRSGGNTYYADSVKGRFTISRDNAKNTVYLQMNSLKPEDTAVYYCAAVYSRLDYWGQGTQVTVSS | high polyreactivity
6 | QVQLVESGGGLVQAGGSLRLSCAASGLTSDENAMGWYRQAPGKERELVAVISNSGDSTYYADSVKGRFTISRDTAKNTVYLQLNSLKPEDTAVYNCAADGLSKFDYWGQGTQVTVSS | low polyreactivity
7 | QVQLVESGGGLVQAGGSLRLSCADSGSGGYAMGWYRQAPGKERELVAAIDNGGSTYYADSVKGRFTISRDNAKNTVYLQMNSLKPEDTAVYYCAAAYRDYTQVTAGDYWGQGTQVTVSS | low polyreactivity
8 | QVQLVESGGGLVQAGGSLSLSCAATGSTFAQNAMGWYRQAPGKERELVAAISRRGGSTYYADSVKGRFTISRDNAKNTVYVQMNSLKPEDTAVYYCAADQPVRQHHRDDYWGQGTQVTVSS | low polyreactivity
9 | QVQLVESGGGLVQAGGSLRLSCAASGSTFYYYAMGWYRQPPGKERELVASITTGGGSTYYADSVKGRFTISRDNAKNTVYLQMNSLKPEDTAVYYCAAALAYYYWWYDYWGQGTQVTVSS | low polyreactivity
10 | QVQHVESGGGLVQAGGSLRLSCAASGRIFVPYAKGWYRQPPGKERELVADISLRGGTTYYADSVKGRFTISRDNAKNTVYLQMNSLKPEDTAVYYCAARGYVSVWRPYHWFVAGDYWGQGTQVTVSS | high polyreactivity
11 | QVQLVESGGGLVQAGGSLRLSCAASGSTFTTYAMGWYRQAPGKESELVAAITWSVGSTYYADSVMGRFTISRDNAKNTVYLQMNSLKPEDTAVYYCAADPTGGVGFDGYYWGQGTQVTVSS | low polyreactivity
12 | QVQLVESGGGLVQAGGSLRLSCAASGSIFELNAMGWYRQAPGKEMELVAAIRWRTGRTYYADSVKGRFTISRDNAKNTVYLLMNSLKPEDTAVYYCNADVTSLTRVHGRFIVSDYDYWGQGTQVTVSS | low polyreactivity
13 | QVQLVESGGGLVQAGGSLRLSSAASGSIFLVNAMGWYRQAPGKERELVAAINSGGSTYYADSVKGRFTISRDNAKNTVYLQMNSLKPEDTAVYYCAADFWLKVWQDTDYDFDYWGQGTQVTVSS | low polyreactivity
14 | QVQLVESGGGLVQAGGSLRLSCAASGRNFLIYAMGWYRQAPRKERELVADISTSGGTTYYADSVKGRFTISRDNAKNTVYLQMNSLKPADTAVYYCAAGSHYWKYYSWGQGTQVTVSS | high polyreactivity
15 | QVQLVESGGGLVQAGGSLRLSCAASGFIFYEYAMGWYRQAPGKERELVAAITSGGSTDYADSVKGRFTISRDNANNTVYLQMNSLKPEDTAVYYCNADLFTGYYWYNYWGQGTQVTVSS | low polyreactivity
16 | QVQLVESGGGLVQAGGSLRLSCAASGRIFSYYAMGWYRQAPGKERELVAAITSGGRTNYADSVKGRFTISRDNAKNTVYLQMNSLNPEDTAVYYCAAIFGYGSTWCRWGKDDYWGQGTQVTVSS | high polyreactivity
17 | QVQLVESGGGLVQAGGSLRLSCAASGRIFNRNAMGWYRQAPGKERELVAAITRGGRTNYADSVKGRFTISRDNAQNTVYLHMNSLKPEDTAVYYCAAAYYGSHCRYDYWGQGTQVTVSS | high polyreactivity
18 | QVQLVESGAGLVQAGGSLRLSCAASGRIFAGYAMGWYRQAPGKEMELVATISSGGSTYYADSVKGRFTISRYNAKNTVYLQMNSLKPEVTAVYYCAADNWVNDGDYCGQGTQVTVSS | low polyreactivity
19 | QVQLVESGGGLVQEGGSLRISCAASGRIFYYYVMGGYRQAPGKERELVAGITSRGRTYYADSVKGRFTISRDNAKNTVYLQMNSLKPEVTAVYDCNKVGATWRQWFGYWGQGTQVTVSS | high polyreactivity
20 | QVQLVESGGGLVQAGGSLRLSCAASGRTFHGYAMGWYRQAPGKERELVARINWSDGRTYYADSVKGRFTISRDNAKNTVYLQMNSLKPEEPAVYYCAATRYYYYWYVYEDRGDFWGQGTQVTVSS | low polyreactivity
21 | QVQRVESGGGIVQAGVSLSLSCPASGRIFTSNAMGWYRQEPGKERELVAAIRWSDGSTYYADSVKGRFTISRDNAKNTVYLQMNSLKPEDTAVYYCAADTRTSYYNDDYVFWGQGTQVTVSS | low polyreactivity
22 | QVQLVESGGGLVQAGGSLRLSCAASGRTFLVYAMGWYRQAPGKERELVAAITWTGGTTYYADSVKGRFTISRDNAKNTVYLQMNSLKPEDTAVYYCNKRGSAWLVEEVDYWGQGTQVTVSS | low polyreactivity

Row | Sequence | polyreactivity (PSR sort gate)
23 | QVQLVESGGGLVQAGGSLRLSCAASGSIFDHYAMGWYRQAPGKERELVAAIRTDGSTKYADSVKGRFTISRDNAKNTVYLQMNSLKPEDTAVYYCAATTGYTARWRNRYIYSYWGQGTEVTVSS | high polyreactivity
24 | QFHLVESGGGLVQAGGSLRLSCAATGSIFYTNAMGWYRQPAGTDRELVASIRSRDRTKYADSVKWRFSISRVNAKNTVYLQMNSLKPEDTAVYYCAADRYWYGVHASIYYYWGHGTQVTVSS | high polyreactivity
25 | KFQLVESGGGLVQAGGRLRLSCAASGSTFWDYAMGWYRQATGKERQLVAVITSSGGGTYYADSVKGRFTISRDNSKNTVYLLMNSLKPEDTAVYYCAKKRPYSNGGYYWGQGSQVTVSS | high polyreactivity
26 | QVQLVESGGGLVQAGGSLRLSCAASGSTFGINAMVWYRQAPGKERELVASITRRGGSTYYADSVKGRFTISRDNAKNTVYLQMNSLKPEDTAVYYCNKTYRYGTPLYDYWGQGTQVTVSS | high polyreactivity
27 | QVQLVESGGGLVQAGGSLRLSCAASGITFYRNAMGWYRQAPGKERELVAAIDVGDGTYYADSVKGRFTISRDNAKNSVYFQMNSLKPEDTAVYYCNKTFLFLEYDSWGQGTQVTVSS | low polyreactivity
28 | QVQLVESGGGLVQAGGSLRLSCAASGSTFLYYAMGWYRQEPGKEREFVASISGSGGSTNYADSVKGRFTISRDNAKNTVYLQMNSLKPEDTAVYYCAKEYVTEFQGYYYWGQGTQVTVSS | low polyreactivity
29 | QVQLVESGGGLVQAGGSLRLSCAASGRIFYAYAMGWYRQAPGKERELVAGISRGSSTNYADSVKGRFTISRDNAKNTVYLQMNSLKPEDTAVYYSAADVHRRGRYHSTYDYWGQGTQVTVSS | low polyreactivity
30 | QDQLVESGGGLVQAGGSLRLSCAASGGNFPPYDMGWYRQAPGKERDLVATISSDSTNYADSVKGRFTISRDNAKNTVYLQMNSLKPEDSAVYYCAVRFYWAPGGGEYDYWGQGTQVTVSS | low polyreactivity
31 | QVQLVESGGGLVQAGGSLRLSCAASGNIVGSNAMGWYRQAPGKERELVAAISKSGGRTYYADSVKGRFTISRDNAKNTVYLQMNSLKPEDTAVYYCAAYDGYYEFDYWGQGTQVTVSS | low polyreactivity
32 | QVQLVESGGGLVQAGGSLRLSCAASGFTSAPYAMGWYRQAPGKERELVAAISSGDTTSYADSVKGRFTISRDNAKNTVYLQMNSLKPEDTAVYYCAAVYFNVIESYKTAGYDYWGQGTQVTVSS | low polyreactivity
33 | QVQLVETGGGLVQAGGSLRLSCAPSGRTLTYYAMGWYRQAPGKERELVAAIRHSAGSTYYADSVKVRFTISRDNAKNSVYLLMNSLKPEVTAVYYCAKKYYGHRYPSIYDYWGQGTQVTVSS | high polyreactivity
34 | PVQLQESGGGLVQAGRSLRMSSAASGNIFDADIMGWYRQAPGKERELVACIADGGSTNYADSVKGRFTISRDNAKYTVYLQMNSLKPEDTAVYYCAAIAYPDIPTCFDYDSDYFFRGQGTQVTVSS | low polyreactivity
35 | QVQLVESGGGLVQAGGSLRLSCAASGLIFRWYAMGWYRQAPGKEREMVAAISRRGGTTNYADSVKGRFTISRDNAKNTVYLQMTSLKPEDTAVYYCAADYQSVGGAEYDYWGQGTQVTVSS | high polyreactivity
36 | QVQLVESGGGLVQAGGSLRLICAASGRTFGGNAMGWYRQAPGKERELVAAISSGGSTNYADSVNGRFTISRDNAKNTVYFLMNSLKPEDTAVYYCAADSKIGSFDSWGQGTQVTVSS | low polyreactivity
37 | PVQLVESGGGLVQAGGSLRLSCAASGRTYYTNAIGWYRQAAGNVRELVAAITGDGTSTYYADSVKGRFTMSRDNATYTVFLQINSLKPEDTAVYYCAATGGDRYEAYSYWGQGTQVTVSS | low polyreactivity
38 | QVQLVESGGGLDQAGGSLRLSCAASGFTFRYYAMGWYRQAPRKERELVAAIRRGGTTNYADSVKGRFTISRDNAKNTVYLQMNSLKPEDTAVYYCANYRYGYDYWGQGTQVTVSS | high polyreactivity
39 | QVQLVESGGCLVQAGGSLRLSCAASGRTFYSYAMGWYRQAPGKERELVAAISYTGASTFYADSVKGRFTISRDNAKNTVYLQMNSLKPEDTAVYYCAARKVRFAVDYWGQGTQVTVSS | high polyreactivity
40 | QVQLVESGGGLVQAGGSLRLSCAASGSTIYLNAMGWYRQAPGKERELVAAIDYRGGSTYYADSVKGRFTISRDNAKNTVYLQMNSLKPEDTAVYYCNADYVYVHYQPGYYWGQGTQVTVSS | low polyreactivity
41 | QVQLVESGGGLVQAGGSLRLSCAASGITFYKYVMGWYRQAPGKERELVAAISSVGSTYYADSVKGRFTISRDNAKNTVYLQMNSLKPEDTAVYYCAAKYWKWYHYGFGYWGQGTQVTVSS | high polyreactivity
42 | QVQLVESGGGLVQAGGSLRLICAASGRIFGLYAMGWYRQAPGKERELVAGITYSGGTTYYADSVKGRFPISRDNAKNTVYLQMNSLKPEDTAVYYCNKRWYYQYGQSHVRLYDYWGQGTQVTVSS | high polyreactivity
43 | QVQLVESGGGLVQAGGSLRLSCAASGRIFVYYTMGWYRQAPGKERELVAAITGSGGSTYYADSVKGRFTISRDNAKNTVYLQMNSLKPEDTAVYSCAVYDSYRKFKYWGQGTQVTVSS | high polyreactivity

— the nanobody polyreactivity screen of Harvey et al. (2022)
